# Assay results as given in the supplement of paper PMC10567573.
# B1: ZNF649 (parent)
# chain: LTEHKRIHTGKKPHVCSLCGKAFY
# Variants of: B1
# Assay: protein stability index of a GFP-peptide fusion (GPS, HEK-293T) (PSI 1-6); higher = more stable
# Details: c terminus: a fixed tail appended
# 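Note: lentivirally expressed fusions sorted by FACS into six bins by GFP to DsRed ratio, PSI derived from sequencing read proportions per bin multiplied by bin number.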
row,Variant,protein stability index
1,LTEHKRIHSGKKPHVCSLCGKAFY [T9S],3.36
2,LTEHKRIHQGKKPHVCSLCGKAFY [T9Q],2.31
3,LTEHKRIHYGKKPHVCSLCGKAFY [T9Y],2.3
4,LTEHKRIHEGKKPHVCSLCGKAFY [T9E],2.98
5,LTEHKRIHHGKKPHVCSLCGKAFY [T9H],3.04
6,LTEHKRIHDGKKPHVCSLCGKAFY [T9D],3.3
7,LTEHKRIHFGKKPHVCSLCGKAFY [T9F],2.8
8,LTEHKRIHKGKKPHVCSLCGKAFY [T9K],2.35
9,LTEHKRIHWGKKPHVCSLCGKAFY [T9W],3.49
10,LTEHKRIHMGKKPHVCSLCGKAFY [T9M],2.85
11,LTEHKRIHIGKKPHVCSLCGKAFY [T9I],1.87
12,LTEHKRIHVGKKPHVCSLCGKAFY [T9V],3.62
13,LTEHKRIHGGKKPHVCSLCGKAFY [T9G],2.8
14,LTEHKRIHAGKKPHVCSLCGKAFY [T9A],2.04
15,LTEHKRIHLGKKPHVCSLCGKAFY [T9L],2.51
16,LTEHKRIHPGKKPHVCSLCGKAFY [T9P],2.85
17,LTEHKRIHCGKKPHVCSLCGKAFY [T9C],2.32
18,LTEHKRIHRGKKPHVCSLCGKAFY [T9R],2.45
19,LTEHKRDHTGKKPHVCSLCGKAFY [I7D],2.31
20,LTEHKRCHTGKKPHVCSLCGKAFY [I7C],2.6
21,LTEHKRTHTGKKPHVCSLCGKAFY [I7T],2.71
22,LTEHKRLHTGKKPHVCSLCGKAFY [I7L],3.11
23,LTEHKRRHTGKKPHVCSLCGKAFY [I7R],3.93
24,LTEHKRAHTGKKPHVCSLCGKAFY [I7A],2.52

row,Variant,protein stability index
1,LTEHKRHHTGKKPHVCSLCGKAFY [I7H],2.16
2,LTEHKRMHTGKKPHVCSLCGKAFY [I7M],2.4
3,LTEHKRNHTGKKPHVCSLCGKAFY [I7N],2.85
4,LTEHKREHTGKKPHVCSLCGKAFY [I7E],2.71
5,LTEHKRSHTGKKPHVCSLCGKAFY [I7S],3.72
6,LTEHKRGHTGKKPHVCSLCGKAFY [I7G],2.78
7,LTEHKRFHTGKKPHVCSLCGKAFY [I7F],2.18
8,LTEHKRKHTGKKPHVCSLCGKAFY [I7K],1.98
9,LTEHKRVHTGKKPHVCSLCGKAFY [I7V],2.58
10,LTEHKRPHTGKKPHVCSLCGKAFY [I7P],2.38
11,LTEHKRQHTGKKPHVCSLCGKAFY [I7Q],2.73
12,LTEHKRWHTGKKPHVCSLCGKAFY [I7W],2.5
13,LTEHKIIHTGKKPHVCSLCGKAFY [R6I],2.71
14,LTEHKCIHTGKKPHVCSLCGKAFY [R6C],4.05
15,LTEHKDIHTGKKPHVCSLCGKAFY [R6D],2.93
16,LTEHKYIHTGKKPHVCSLCGKAFY [R6Y],2.5
17,LTEHKEIHTGKKPHVCSLCGKAFY [R6E],3.42
18,LTEHKKIHTGKKPHVCSLCGKAFY [R6K],2.33
19,LTEHKQIHTGKKPHVCSLCGKAFY [R6Q],4.11
20,LTEHKGIHTGKKPHVCSLCGKAFY [R6G],1.94
21,LTEHKTIHTGKKPHVCSLCGKAFY [R6T],3.08
22,LTEHKLIHTGKKPHVCSLCGKAFY [R6L],2.14
23,LTEHKNIHTGKKPHVCSLCGKAFY [R6N],2.58
24,LTEHKSIHTGKKPHVCSLCGKAFY [R6S],2.25

row,Variant,protein stability index
1,LTEHKHIHTGKKPHVCSLCGKAFY [R6H],3.63
2,LTEHKFIHTGKKPHVCSLCGKAFY [R6F],2.33
3,LTEHKWIHTGKKPHVCSLCGKAFY [R6W],2.75
4,LTEHKRIETGKKPHVCSLCGKAFY [H8E],3.25
5,LTEHKRIPTGKKPHVCSLCGKAFY [H8P],4.21
6,LTEHKRIYTGKKPHVCSLCGKAFY [H8Y],2.89
7,LTEHKRITTGKKPHVCSLCGKAFY [H8T],2.58
8,LTEHKRICTGKKPHVCSLCGKAFY [H8C],3.2
9,LTEHKRILTGKKPHVCSLCGKAFY [H8L],2.29
10,LTEHKRIWTGKKPHVCSLCGKAFY [H8W],2.06
11,LTEHKRIITGKKPHVCSLCGKAFY [H8I],2.17
12,LTEHKRIFTGKKPHVCSLCGKAFY [H8F],2.71
13,LTEHKRIVTGKKPHVCSLCGKAFY [H8V],2.18
14,LTEHKRIATGKKPHVCSLCGKAFY [H8A],2.86
15,LTEHKRIQTGKKPHVCSLCGKAFY [H8Q],3.1
16,LTEHKRIKTGKKPHVCSLCGKAFY [H8K],2.14
17,LTEHKRIGTGKKPHVCSLCGKAFY [H8G],2.13
18,LTEHKRIRTGKKPHVCSLCGKAFY [H8R],4.2
19,LTEHKRIDTGKKPHVCSLCGKAFY [H8D],2.67
20,LTEHKRIMTGKKPHVCSLCGKAFY [H8M],2.49
21,LTEVKRIHTGKKPHVCSLCGKAFY [H4V],1.94
22,LTEYKRIHTGKKPHVCSLCGKAFY [H4Y],2.36
23,LTETKRIHTGKKPHVCSLCGKAFY [H4T],2.52
24,LTEPKRIHTGKKPHVCSLCGKAFY [H4P],2.43

row,Variant,protein stability index
1,LTERKRIHTGKKPHVCSLCGKAFY [H4R],2.24
2,LTENKRIHTGKKPHVCSLCGKAFY [H4N],2.84
3,LTEQKRIHTGKKPHVCSLCGKAFY [H4Q],3.31
4,LTESKRIHTGKKPHVCSLCGKAFY [H4S],2.58
5,LTEWKRIHTGKKPHVCSLCGKAFY [H4W],2.78
6,LTEMKRIHTGKKPHVCSLCGKAFY [H4M],2.47
7,LTEHWRIHTGKKPHVCSLCGKAFY [K5W],3.18
8,LTEHPRIHTGKKPHVCSLCGKAFY [K5P],1.15
9,LTEHCRIHTGKKPHVCSLCGKAFY [K5C],4.3
10,LTEHDRIHTGKKPHVCSLCGKAFY [K5D],3.35
11,LTEHSRIHTGKKPHVCSLCGKAFY [K5S],2.3
12,LTEHRRIHTGKKPHVCSLCGKAFY [K5R],2.63
13,LTEHERIHTGKKPHVCSLCGKAFY [K5E],3.03
14,LTEHFRIHTGKKPHVCSLCGKAFY [K5F],2.25
15,LTEHARIHTGKKPHVCSLCGKAFY [K5A],3.06
16,LTEHIRIHTGKKPHVCSLCGKAFY [K5I],3
17,LTEHQRIHTGKKPHVCSLCGKAFY [K5Q],2.79
18,LTEHNRIHTGKKPHVCSLCGKAFY [K5N],3.39
19,LTEHMRIHTGKKPHVCSLCGKAFY [K5M],2.79
20,LTEHVRIHTGKKPHVCSLCGKAFY [K5V],2.48
21,LTEHLRIHTGKKPHVCSLCGKAFY [K5L],2.23
22,LTEHTRIHTGKKPHVCSLCGKAFY [K5T],2.88
